Data on 6 molecules can be found in publication PMC2854237 (Insect biochemistry and molecular biology, 2010).

For data set [1], the target named is D. yakuba ovulin C-terminal fragment, 6xHis-tagged (D. yakuba). Nature of the data set: cross-linking.
In data set [2] the target is D. melanogaster ovulin (Acp26Aa), endogenous in male accessory glands (D. melanogaster (endogenous in male accessory glands)). Put plainly: non-reducing SDS-PAGE and Western blot of SDS-stable complexes.
Data set [3] has the same target. Described as above. The source holds these as a separate data set.
Data set [4] deals with D. pseudoobscura ovulin C-terminal fragment, 6xHis-tagged (D. pseudoobscura). Put plainly: cross-linking.
The data set “cross-linking” deals with the molecule itself. Nature of the data set: cross-linking.
Data set [5] concerns the molecule itself. Nature of the data set: non-reducing SDS-PAGE and Western blot of SDS-stable complexes. In general terms: Immunoblotting shows a protein as a band on a membrane.

Like-named read-outs stand apart in the source and are kept apart here.

Regarding “D. yakuba ovulin C-terminal fragment, 6xHis-tagged (domain or fragment)”, in data set [1], the stoichiometry N (usually the number of molecules, sites or subunits per partner or assembly) turned out to be 2. Consider “D. melanogaster ovulin (Acp26Aa), endogenous in male accessory glands (natural protein)”, for which the stoichiometry N in data set [2] and in data set [3] was 2 each time. Take “D. pseudoobscura ovulin C-terminal fragment, 6xHis-tagged (domain or fragment)”: the stoichiometry N in data set [4] worked out at 2.

For the molecule NVRNTYRNKYLTLLKELSQKINNEIAKVATDVPTETNPSQGNLPTL (domain or fragment, UniProt P10333 219-264, looked up) [Wild-type D. melanogaster ovulin C45 (C-terminal fragment), 6xHis- and Xpress-tagged], the “stoichiometry N” value in “cross-linking” turned out to be 2.

B1: D. simulans ovulin C-terminal fragment, 6xHis-tagged (domain or fragment, UniProt P33737 156-255, looked up)
chain: RQLNIDLELELEALKRKLSEMNAQNARKPTKSCKKRPSKDIAPPANQLQEVIVKNTYRNKYLTLLTQLAQKINYEIANVNNPATDVPTGKSPSEGNPSTT
For B1, in “cross-linking”, the “stoichiometry N” value is 2.

B2: D. simulans ovulin (putative ortholog), endogenous in male accessory glands (natural protein, UniProt P33737 19-255, looked up)
chain: NCDGEHQLDSSMDLKSDSTKSAVLKNVAPKNDATQAEIAKDDVALKSGKKGDYVMDIDVCTMPLDDYPINNSKSRKNSSTLPSQILTDKPNQGSNQIALKALKHRLLMEQNNNLFLRNHSVSLMNEIEARKTDIIQARQLNIDLELELEALKRKLSEMNAQNARKPTKSCKKRPSKDIAPPANQLQEVIVKNTYRNKYLTLLTQLAQKINYEIANVNNPATDVPTGKSPSEGNPSTT
As for B2, in data set [5], the “stoichiometry N” value turned out to be 2.
